Source: PMC11784345

These sequences were tested on MBP-His8-MilO (Streptoverticillium rimofaciens (Streptomyces rimofaciens)) (assay: fluorescence polarization). Conditions: EMSA: 20 mM Tris-HCl pH 8.0, 100 mM KCl, 2.5 mM MgCl2, 0.2 mM DTT, 10% glycerol, salmon sperm DNA, 30 C 10 min (Fig 5 legend: room temperature); FP: 20 mM Tris ….

Binding signal (fold decrease in affinity vs OBSWT), 3:
TGTCGCCCGGTCGTGTCGCTCGGTGGCGCCTATCAACGCCCCGG (double strand) [OBSM3]
TGTCGCCCGGTCGTATTATCTAACGGTGTCCGCCGGTGCCCCGG (double strand) [OBSM2]
CACTATTTAATCGTGTCGCTCGGTGGTGTCCGCCGGTGCCCCGG (double strand) [OBSM1]
